Laboratory results from patent US20070178531A1 (BIOCHECK, published 2007).

T1: Human Id2: Histidine (human, UniProt Q02363 1-134, limits assumed)
T1 construct: Fusion protein made in E. coli from vector pGW07; also called h-Id2: His; not shown: His tag
T1 sequence (looked up): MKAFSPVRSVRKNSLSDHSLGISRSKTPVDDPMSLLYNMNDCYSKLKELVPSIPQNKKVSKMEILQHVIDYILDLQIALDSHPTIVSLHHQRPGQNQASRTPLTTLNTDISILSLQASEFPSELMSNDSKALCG

T2: Human Id1: Histidine (human, UniProt P41134 1-155, limits assumed)
T2 construct: Fusion protein made in E. coli from vector pGW07; also called h-Id1: his; not shown: His tag
T2 sequence (looked up): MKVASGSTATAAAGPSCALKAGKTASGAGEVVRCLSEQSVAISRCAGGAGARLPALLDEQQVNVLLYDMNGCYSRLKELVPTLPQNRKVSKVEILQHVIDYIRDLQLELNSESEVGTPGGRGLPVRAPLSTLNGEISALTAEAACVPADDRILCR

T3: Mouse Id2: Histidine (mouse, UniProt P41136 1-134, limits assumed)
T3 construct: Fusion protein made in E. coli from vector pGW07; also called m-Id2: His; not shown: His tag
T3 sequence (looked up): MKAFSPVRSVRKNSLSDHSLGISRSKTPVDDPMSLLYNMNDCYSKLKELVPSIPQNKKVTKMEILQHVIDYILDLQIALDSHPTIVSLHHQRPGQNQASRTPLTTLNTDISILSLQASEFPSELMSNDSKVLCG

T4: Mouse Id3: Histidine (mouse, UniProt P41133 1-119)
T4 construct: Fusion protein made in E. coli from vector pGW07; also called m-Id3: His; Mouse Id3 (coated wells); not shown: His tag
T4 sequence: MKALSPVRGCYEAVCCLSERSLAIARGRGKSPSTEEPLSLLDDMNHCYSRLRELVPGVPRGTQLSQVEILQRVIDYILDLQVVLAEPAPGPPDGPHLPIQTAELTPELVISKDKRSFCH

T5: Human Id3: Histidine (human, UniProt Q02535 1-119 at identity 1.00))
T5 construct: Fusion protein made in E. coli from vector pGW07; also called h-Id3: His; Human Id3 (coated wells); not shown: His tag
T5 chain: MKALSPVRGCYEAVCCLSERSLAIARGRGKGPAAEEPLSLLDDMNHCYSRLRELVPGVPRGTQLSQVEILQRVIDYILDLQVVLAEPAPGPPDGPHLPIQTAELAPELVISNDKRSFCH

T6: Mouse Id1: Histidine (mouse, UniProt P20067-2 1-148, limits assumed)
T6 construct: Fusion protein made in E. coli from vector pGW07; also called m-Id1-His; not shown: His tag
T6 sequence (looked up): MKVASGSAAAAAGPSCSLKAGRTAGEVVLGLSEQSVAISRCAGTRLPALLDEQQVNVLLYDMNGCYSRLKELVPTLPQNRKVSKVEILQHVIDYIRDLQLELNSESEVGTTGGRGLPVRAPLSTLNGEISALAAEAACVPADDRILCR


Assays:
Human Id2: Histidine [1] = target: T1, Human Id2: Histidine; assay: ELISA, Ab 0.010 µg/ml
Protocol: The rabbit monoclonal anti-human Id3 (clone #3-3) and the rabbit monoclonal anti-mouse/human Id3 (clones #6-1, 16-1, 17-3, and 42-1) produced in Example 6 were tested reactivity against the following antigens: mouse Id1:His, human Id1:His, mouse Id2:His, human Id2:His, mouse Id3:His, human Id3:His, mouse Id4:His, human Id4:His and GST.
1. Microtiter wells (prepared in accordance with Example 6) were coated (0.1 μg/well) with mouse Id1:His, human Id1:His, human Id2:His, human Id3:His, and 1.0 μg/well with GST. [0155] 2. Antibody Diluent: 0.25% (w/v) BSA in 0.015M KPO₄ Buffer, 0.85% (w/v) NaCl, 0.1% (w/v) NaN₃, pH=7.40 [0156] 3. Rabbit monoclonal anti-human Id3 (clone #3-3) prepared in Example 7 was diluted to […] with the antibody diluent. […] 4. Rabbit monoclonal anti-mouse/human Id3 (clones #6-1, 16-1, 17-3, 42-1) prepared in Example 7 was diluted to 0.005, 0.010, 0.025, 0.05, 0.10, 0.25, and 0.50 μg/ml with the antibody diluent. […] 5. Conjugate Diluent: 50% (v/v) which consists of an aqueous solution containing Fetal Bovine Serum in 0.05 M Tris, 1% (v/v) Proclin-300, pH 7.6. [0159] 6. Conjugate: Goat anti-rabbit IgG (H+L)-HRP conjugate. [0160] 7. TMB reagent. […] 8. Stop solution (1 N HCI). Method
1. Dispense 100 μL of antibody diluent, diluted rabbit monoclonal human Id3, and mouse/human Id3 hybridoma supernatants into appropriate wells. […] 2. Incubate at room temperature with mechanical shaking at 750 rpm for 90 minutes. [0165] 3. Remove the incubation mixture by flicking plate content into an appropriate waste container followed by rinsing the wells 5 times with distilled water. [0166] 4. Strike the wells sharply onto absorbent paper or paper towels to remove all residual water droplets. [0167] 5. Dispense 100 μL of 1:50,000 Goat Anti-Rabbit IgG-HRP Conjugate Reagent into each well. Gently mix for 5 seconds. [0168] 6. Incubate at room temperature with mechanical shaking at 750 rpm for 90 minutes. [0169] 7. Repeat procedures 3 and 4. [0170] 8. Dispense 100 μL of TMB Reagent into each well. Gently mix for 5 seconds. [0171] 9. Incubate at room temperature with mechanical shaking at 750 rpm for 20 minutes. […] 10.

[2] = target: T7, glutathione S-transferase (GST) (UniProt P08515 1-218 = GST); assay: ELISA, Ab 0.005 µg/ml
T7 construct: also called carrier protein GST

[3] = target: T7, glutathione S-transferase (GST); assay: ELISA, Ab 0.025 µg/ml
[4] = target: T7, glutathione S-transferase (GST); assay: ELISA, Ab 0.050 µg/ml
Human Id1: Histidine = target: T2, Human Id1: Histidine; assay: ELISA, Ab 0.100 µg/ml
Mouse Id2: Histidine = target: T3, Mouse Id2: Histidine; assay: ELISA, Ab 0.100 µg/ml
Human Id2: Histidine [5] = target: T1, Human Id2: Histidine; assay: ELISA, Ab 0.100 µg/ml
Mouse Id3: Histidine = target: T4, Mouse Id3: Histidine; assay: ELISA, Ab 0.100 µg/ml
Human Id3: Histidine = target: T5, Human Id3: Histidine; assay: ELISA, Ab 0.100 µg/ml
Mouse Id1: Histidine = target: T6, Mouse Id1: Histidine; assay: ELISA, Ab 0.100 µg/ml

T7 sequence (P08515 whole entry): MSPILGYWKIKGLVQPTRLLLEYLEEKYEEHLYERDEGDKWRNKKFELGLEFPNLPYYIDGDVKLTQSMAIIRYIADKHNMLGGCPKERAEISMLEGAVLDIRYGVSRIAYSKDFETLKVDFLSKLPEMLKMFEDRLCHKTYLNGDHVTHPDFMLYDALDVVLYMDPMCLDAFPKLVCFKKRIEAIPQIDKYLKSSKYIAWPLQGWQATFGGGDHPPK

| Binder | A450 (Human Id2: Histidine [1]) [A450] | A450 [2] [A450] | A450 [3] [A450] | A450 [4] [A450] | A450 (Human Id1: Histidine) [A450] | A450 (Mouse Id2: Histidine) [A450] | A450 (Human Id2: Histidine [5]) [A450] | A450 (Mouse Id3: Histidine) [A450] | A450 (Human Id3: Histidine) [A450] | A450 (Mouse Id1: Histidine) [A450] |
| --- | --- | --- | --- | --- | --- | --- | --- | --- | --- | --- |
| rabbit monoclonal anti-human Id3, clone #BCH-4/#3-3 (antibody, V domains shown, Rabbit IgG from a rabbit hybridoma; also called h Id3 MoAb 3-3) VH: QSVEESGGRLVTPGTPLTLTCTVSGIDLSSYAMSWVRQAPGKGLEWIGVIFPSNNVYYASWAKGRFTISKTSTTVDLKITSPTTEDTATYFCASMGAFDSWGPGTLVTVSS VL: QVLTQTPSPVSAAVGGTVTINCQASQSIYNDNDLAWFQQKPGQPPKLLIYDASTLTSGVPSRFKGSGSGTQFTLTISDLDCDDAATYYCAARYSGNIYGFGGGTEVVVK | 0.043 | 0.045 | 0.048 | 0.048 |  |  |  |  |  |  |
| rabbit monoclonal anti-mouse/human Id3, clone #BCH-4/#16-1 (antibody, V domains shown, Rabbit IgG from a rabbit hybridoma; also called m/h Id3 MoAb 16-1) VH: QSVEESGGRLVTPGTPLTLTCTASGFSLSSYYIHWVRQAPGKALEWIGYISDGGTTYYASWAKGRFTISKTSSTTVDLKMTSLTTEDTATYFCARQGFNIWGPGTLVTVSL VL: AVLTQTPSPVSAAVGGTVTISCQSSQSVYNNNWLSWFQQKSGQPPKLLIYETSKLESGVPSRFKGSGSGTQFTLTIIDVQCDDAATYYCLGGYWTTSDNNIFGGGTEVVVK | 0.044 | 0.048 | 0.048 | 0.046 |  |  |  |  |  |  |
| rabbit monoclonal anti-mouse/human Id3, clone #BCH-4/#17-3 (antibody, V domains shown, Rabbit IgG from a rabbit hybridoma; also called m/h Id3 MoAb 17-3; BCH-3/#17-3) VH: QSVEESGGRLVTPGTPLTLTCTASGFSLSNVYIHWVRQAPGKGLEWIGYISDGDTARYATWAKGRFTISKTSSTTVNLKMTSLTTEDTATYFCARQGFNIWGPGTLVTVSL VL: AVLTQTPSPVSAAVGGTVSISCQSSQSVWNNNWLSWFQQKPGQPPKLLIYETSKLESGVPSRFKGSGSGTQFTLTISDVQCDDAATYYCLGGYWTTSDNNVFGGGTEVVVK | 0.043 | 0.048 | 0.045 | 0.046 |  |  |  |  |  |  |
| rabbit monoclonal anti-mouse/human Id3, clone #BCH-4/#6-1 (antibody, V domains shown, Rabbit IgG from a rabbit hybridoma; also called m/h Id3 MoAb 6-1) VH: QSVEESGGRLVTPGTPLTLTCTASGFSLSNVYIHWVRQAPGKGLEWIGYISDGDTARYATWAKGRFTISKTSSTTVNLKMTSLTTEDTATYFCARQGFNIWGPGTLVTVSL VL: AVLTQTPSPVSAAVGGTVSISCQSSQSVWNNNWLSWFQQKPGQPPKLLIYETSKLESGVPSRFKGSGSGTQFTLTISDVQCDDAATYYCLGGYWTTSDNNVFGGGTEVVVK | 0.044 | 0.046 | 0.049 | 0.047 | 0.083 | 0.067 | 0.058 | 2.42 | 1.98 | 0.085 |
| rabbit monoclonal anti-mouse/human Id3, clone #BCH-4/#42-1 (antibody, V domains shown, Rabbit IgG from a rabbit hybridoma; also called m/h Id3 MoAb 42-1) VH: QSVEESGGRLVTPGTPLTLTCTASGFSLSSYYIHWVRQAPGKALEWIGYISDGGTTYYASWAKGRFTISKTSSTTVDLKMTSLTTEDTATYFCARQGFNIWGPGTLVTVSL VL: AVLTQTPSPVSAAVGGTVTISCQSSQSVYNNNWLSWFQQKSGQPPKLLIYETSKLESGVPSRFKGSGSGTQFTLTIIDVQCDDAATYYCLGGYWSTSDNNIFGGGTEVVVK | 0.046 | 0.048 | 0.045 | 0.049 |  |  |  |  |  |  |
